In paper PMC2923621, “Gliadin Peptide P31-43 Localises to Endocytic Vesicles and Interferes with Their Maturation” (PLoS ONE, 2010):

What was measured:
Hrs = target: T1, Hrs (Homo sapiens, UniProt O14964); test: Subcellular fractionation and immunoblotting of endogenous Hrs; format: cell-based; settings: CaCo-2 cells, western blot, three independent experiments
T1 construct: to quantify the amount of endogenous Hrs present in each compartment; endogenous in cells; host or cells: CaCo-2
Method: Near-confluent Caco2 cells in a 90-mm dish were incubated with EGF and P31-43 at various times, after homogenization (10 mM Tris-HCl [pH 7.4], 1 mM EDTA, and the mixture of phosphatase and protease inhibitors) the nuclear fraction was eliminated by centrifugation. The soluble cytosolic and the membrane fraction were obtained by ultracentrifugation. Electrophoresis and immunoblotting were performed as described elsewhere. Briefly the proteins of the soluble cytosolic and the membrane fractions were separated by SDS-PAGE and incubated with anti-Hrs mouse monoclonal antibody (Alexis, Vinci-Biochem, Florence, Italy) or anti-EGFR rabbit polyclonal antibody (Cell Signaling Celbio, Milan Italy) or anti-tubulin mouse monoclonal antibody (SIGMA-Aldrich, Milan, Italy). Densitometric analysis was performed as before.

CaCo-2 cells = test: BrdU incorporation with or without Hrs-EGFP transfection; format: cell-based; settings: serum starved 0.1% FCS, mean ± SD of three independent experiments
Method: We used the lipofectamine kit (Invitrogen, San Giuliano Milanese, Italy) according to the manufacturer's instructions to transfect all plasmids (Rab5-EGFP, Rab7-EGFP, Hrs-EGFP and Hrs-Ha). Briefly, CaCo-2 cells seeded on coverslips for 48 h were transfected with the plasmids for 16 h. The next day, transfected cells were pulsed and chased as described below or stained for Bromodeoxyuridine (BrdU) with a monoclonal antibody (Sigma-Aldrich, Milan, Italy) and total nuclei were identified by Hoechst staining. BrdU incorporation was performed as described elsewhere, briefly, CaCo-2 cells seeded on coverslips were transfected with Hrs-EGFP and serum starved in DMEM 0.1% foetal calf serum, antibiotics and glutamine for 30–48 h followed by 24 h treatment with gliadin peptides and/or growth factors. BrdU ([…], Boehringer) was added for one hour before fixing the samples. The cells fixed with paraformaldehyde and permeabilised with triton, were stained for BrdU as described and observed at the miscroscope (Axiophot microscope, Carl Zeiss MicroImaging, Inc.). Greater than 100 HRS-EGFP positive cells in several fields were evaluated for BrdU incorporation in each sample. The number of HRS-EGFP/BrdU positive cells was expressed as a proportion of the total Hoechst positive nuclei.

T1 sequence (O14964 whole entry): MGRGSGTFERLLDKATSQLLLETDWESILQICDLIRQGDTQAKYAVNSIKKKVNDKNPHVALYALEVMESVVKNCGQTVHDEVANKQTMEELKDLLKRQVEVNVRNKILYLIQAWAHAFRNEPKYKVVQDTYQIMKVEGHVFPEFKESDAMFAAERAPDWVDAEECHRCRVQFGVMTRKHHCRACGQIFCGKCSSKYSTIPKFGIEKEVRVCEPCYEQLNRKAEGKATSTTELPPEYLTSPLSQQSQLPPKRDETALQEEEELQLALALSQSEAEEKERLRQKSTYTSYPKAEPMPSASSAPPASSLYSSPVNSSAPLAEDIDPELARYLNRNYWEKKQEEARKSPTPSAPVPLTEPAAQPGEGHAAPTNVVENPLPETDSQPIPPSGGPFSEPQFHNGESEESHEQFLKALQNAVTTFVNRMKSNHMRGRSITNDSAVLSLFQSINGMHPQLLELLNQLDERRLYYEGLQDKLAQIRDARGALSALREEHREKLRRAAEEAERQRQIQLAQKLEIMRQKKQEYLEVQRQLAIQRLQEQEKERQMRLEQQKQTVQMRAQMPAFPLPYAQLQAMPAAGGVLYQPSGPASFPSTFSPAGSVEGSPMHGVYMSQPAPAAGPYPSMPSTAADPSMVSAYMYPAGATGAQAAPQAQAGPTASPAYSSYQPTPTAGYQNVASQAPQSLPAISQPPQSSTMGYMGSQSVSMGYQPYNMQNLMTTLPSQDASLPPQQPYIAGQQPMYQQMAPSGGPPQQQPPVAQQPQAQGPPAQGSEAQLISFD

Question: For “EGF: growth factor used at 100 nanograms/ml as positive control”, which “Amount of Hrs in the membrane fraction” value (Hrs; normalised to EGFR) is on record?
Answer: did not affect Hrs concentration in either compartment

Question: And the “Amount of Hrs in the cytosolic fraction” value (Hrs; normalised to tubulin)?
Answer: did not affect Hrs concentration in either compartment

Question: And the “BrdU incorporation (BrdU incorporating cells as percent of total cells)” value (CaCo-2 cells; CaCo-2 cells not expressing Hrs, 24 h treatment (peptides 70 micrograms/ml, EGF 100 nanograms/ml))?
Answer: 68.99%±7

Question: What about the “BrdU incorporation (BrdU incorporating cells as percent of total cells)” value (CaCo-2 cells; Hrs-EGFP-transfected (Hrs-expressing) CaCo-2 cells, 24 h treatment) of the same substance?
Answer: 66.25%±9.53%
